In article PMC5557850:

Columns and labels:
[1] = target: FapF coiled-coil peptide D3–Q40 (Pseudomonas sp. UK4); experiment: SEC-MALS; Superdex 200 HR 10/30 column coupled to multiple laser light scattering; isolated coiled-coil peptide
[2] = target: full-length FapF (FapF 1–406) (Pseudomonas sp. UK4); experiment: native MS; 0.5 M ammonium acetate pH 7.6 with 0.5% C8E4; nano-electrospray, modified Q-Exactive
[3] = target: full-length FapF (FapF 1–406) (Pseudomonas sp. UK4)

stoichiometry N [1]	stoichiometry N [2]	single-channel current recording in planar DPhPC bilayers: voltage-induced gating at an applied potential of −250 mV [3]	Substance
3	–	–	FapF coiled-coil peptide D3–Q40
–	3	3 steps	full-length FapF (FapF 1–406) (natural protein)
